Like-named read-outs stand apart in the source and are kept apart here. Each block holds one binder with its values, some of them ahead of it. Bridge positions count the residues as written; N and C are the ends. Square brackets hold non-standard residues; d marks the D form. Ends that are not written are not given here. 1Nal = N[C@@H](Cc1cccc2ccccc12)C(=O)O; Sar = CNCC(=O)O
Columns and labels:
[1] = target: recombinant EPO-R (produced in Chinese Hamster Ovary cells as a fusion protein to a portion of the human … (human, UniProt P05187 490-506)); assay: competitive binding; the column head says only 'IC50'; taken as the AlphaQuest bead proximity assay against the biotinylated tracer SEQ ID NO: 4, by paragraph 206
human EPO-R [2] = target: T1, human EPO-R (human, UniProt P19235 25-508); assay: cell-based or functional assay
T1 sequence (looked up): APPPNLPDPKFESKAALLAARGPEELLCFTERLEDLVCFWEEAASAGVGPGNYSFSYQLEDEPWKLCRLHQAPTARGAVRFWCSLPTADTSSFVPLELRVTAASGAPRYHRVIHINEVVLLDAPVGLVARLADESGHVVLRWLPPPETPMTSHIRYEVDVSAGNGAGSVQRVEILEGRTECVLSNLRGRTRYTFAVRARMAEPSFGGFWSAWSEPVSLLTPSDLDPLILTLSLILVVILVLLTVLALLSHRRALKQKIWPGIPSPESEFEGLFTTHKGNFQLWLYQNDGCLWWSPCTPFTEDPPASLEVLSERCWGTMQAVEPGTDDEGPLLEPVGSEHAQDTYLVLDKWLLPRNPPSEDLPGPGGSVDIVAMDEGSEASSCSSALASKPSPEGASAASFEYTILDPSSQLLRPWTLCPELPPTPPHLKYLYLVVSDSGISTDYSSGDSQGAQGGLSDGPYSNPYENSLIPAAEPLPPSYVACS

[3] = target: T2, chimeric receptor comprising the extra-cellular portion of the human EPO receptor to the intra-cellular … (human, UniProt P19235 25-250; Q99062 651-836, limits assumed); assay: cell-based or functional assay
T2 sequence (looked up): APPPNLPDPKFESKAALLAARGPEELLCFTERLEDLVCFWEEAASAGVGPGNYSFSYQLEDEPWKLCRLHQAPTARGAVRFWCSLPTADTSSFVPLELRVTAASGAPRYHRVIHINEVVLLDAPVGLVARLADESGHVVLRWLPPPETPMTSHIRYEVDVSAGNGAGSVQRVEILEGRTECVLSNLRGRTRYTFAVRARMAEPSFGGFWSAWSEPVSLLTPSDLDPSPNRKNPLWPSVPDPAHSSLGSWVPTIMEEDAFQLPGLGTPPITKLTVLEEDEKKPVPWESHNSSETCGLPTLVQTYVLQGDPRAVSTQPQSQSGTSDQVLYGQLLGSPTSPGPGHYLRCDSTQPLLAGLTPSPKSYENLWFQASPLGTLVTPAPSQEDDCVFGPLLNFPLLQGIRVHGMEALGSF

[4] = target: T3, Recombinant Human EPO R/Fc Chimera (human, UniProt P19235 25-250); assay: radioligand competition; competitor 125I-EPO; EPO R/Fc chimera captured on protein-G Sepharose
T3 construct: extracellular domain; Bought from R&D Systems, catalog number 963-ER; also called recombinant EPOr extracellular domain fused to the Fc portion of human IgG1; recombinant erythropoietin receptor; not shown: Fc portion of human IgG1
T3 sequence (looked up): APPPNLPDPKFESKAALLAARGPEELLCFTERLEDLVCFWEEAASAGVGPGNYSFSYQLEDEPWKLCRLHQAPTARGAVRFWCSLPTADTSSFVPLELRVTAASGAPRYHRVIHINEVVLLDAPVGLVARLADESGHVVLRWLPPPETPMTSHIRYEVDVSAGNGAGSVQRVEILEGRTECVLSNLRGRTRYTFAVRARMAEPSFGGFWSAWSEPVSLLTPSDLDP

human EPO-R [5] = target: T1, human EPO-R; assay: cell-based or functional assay; remark: listed apart in the source
[6] = target: T2, chimeric receptor comprising the …; assay: cell-based or functional assay; remark: listed apart in the source

- IC50 [1]: 0.11 nM
B1: Peptide II (SEQ ID NO: 3) (peptide)
peptide: Ac-XGLYACHMGPIT[1Nal]VCQPLR[Sar]
modifications: disulfide 6-15 (inferred); not fully specified (residue 1); printed as (AcG)GLYACHMGPIT(1-nal)VCQPLR(MeG); also: homodimer, C-termini joined to alpha- and epsilon-amino groups of a lysine linker, PEG attached through a spacer, linkage and PEG size not readable
notes: What sets it apart from Peptide III (PEG linkage or size) stands only in drawing CHEM-US-00080

- Proliferation EC50 (human EPO-R [2]): 165 pM
- Reporter EC50 [3]: 195 pM
- IC50 [4]: 0.111 nM
B2: Peptide I (SEQ ID NO: 2) (peptide)
peptide: Ac-XGLYACHMGPIT[1Nal]VCQPLR[Sar]K
modifications: disulfide 6-15; not fully specified (residues 1, 21); printed as (AcG)GLYACHMGPIT(1-nal)VCQPLR(MeG)K; also: homodimer joined by a branched tertiary amide linker on the epsilon-N of Lys21, PEG attached through a spacer, exact linker and PEG structure not readable
notes: The exact structure (linker, spacer, PEG size, carbamate or amide linkage) stands only in drawing CHEM-US-00099, which is not readable here

- Proliferation EC50 (human EPO-R [5]): 72 nM
- Reporter EC50 [6]: 150 pM
B3: Peptide III (SEQ ID NO: 3) (peptide)
peptide: Ac-XGLYACHMGPIT[1Nal]VCQPLR[Sar]
modifications: disulfide 6-15; not fully specified (residue 1); printed as (AcG)GLYACHMGPIT(1-nal)VCQPLR(MeG); also: homodimer, C-termini joined to alpha- and epsilon-amino groups of a lysine linker, PEG attached through a spacer, linkage and PEG size not readable

Source: patent US20080081783A1 (published 2008)
